From publication PMC8640019

Biological target: SH2B (human) (UniProt Q9NRF2)
Test: ITC

With JAK2 pY813 peptide the Ka was 1.45e+06 M⁻¹, the Kd was 0.69 µM and the stoichiometry N was 0.79.
